This is an account of results in FireProtDB (doi:10.1093/protein/12.3.251).

B1: Endo-1,4-beta-xylanase A, P26514 (parent)
chain: MGSYALPRSGVRRSIRVLLLALVVGVLGTATALIAPPGAHAAESTLGAAAAQSGRYFGTAIASGRLSDSTYTSIAGREFNMVTAENEMKIDATEPQRGQFNFSSADRVYNWAVQNGKQVRGHTLAWHSQQPGWMQSLSGSALRQAMIDHINGVMAHYKGKIVQWDVVNEAFADGSSGARRDSNLQRSGNDWIEVAFRTARAADPSAKLCYNDYNVENWTWAKTQAMYNMVRDFKQRGVPIDCVGFQSHFNSGSPYNSNFRTTLQNFAALGVDVAITELDIQGAPASTYANVTNDCLAVSRCLGITVWGVRDSDSWRSEQTPLLFNNDGSKKAAYTAVLDALNGGDSSEPPADGGQIKGVGSGRCLDVPDASTSDGTQLQLWDCHSGTNQQWAATDAGELRVYGDKCLDAAGTSNGSKVQIYSCWGGDNQKWRLNSDGSVVGVQSGLCLDAVGNGTANGTLIQLYTCSNGSNQRWTRT

This data set covers variants of B1. The conditions noted are these: Streptomyces lividans; pH 6; Thermal; CD; sodium phosphate 10 mM; structure 1XAS; whole UniProt chain shown.

By Tm is commonly meant the temperature at which the thermal transition is half complete. Turning to W307H, the Tm was 60.7 °C and the “change of melting temperature, mutant - wild type (higher = more stable)” value (“change of melting temperature, mutant” below) is -7.3 °C.
For W307A the same measures were 63.3 °C and -4.7 °C.
For W307F the same measures were 64.7 °C and -3.3 °C.
Taken in the same sequence, the figures for Y213A were 63 °C and -5 °C.
Consider Y213S, for which the melting temperature (Tm) is 69.6 °C and the “change of melting temperature, mutant” value stood at 1.6 °C.
Taken in the same sequence, the figures for Y213F were 67.1 °C and -0.9 °C.
Regarding W126H, the midpoint of thermal melting (Tm) was determined as 67 °C and the “change of melting temperature, mutant” value was -1 °C.
Regarding W126F, the Tm is 64 °C and the “change of melting temperature, mutant” value is -4 °C.
For W126A the same measures were 70 °C and 2 °C.
Taken in the same sequence, the figures for W315A were 72.1 °C and 4.1 °C.
Taken in the same sequence, the figures for W315H were 68.2 °C and 0.2 °C.
Turning to W315F, the Tm was 68.8 °C and the “change of melting temperature, mutant” value amounted to 0.8 °C.
